Data as given in paper PMC2957524.

Tested on: O=C(O)C(=O)CC1(C(=O)O)C=CC(O)C=C1
Test: purified protein
Assay type: biochemical, Planktothrix agardhii
Settings: non-aromatizing decarboxylation to endocyclic diene H2HPP

AerD (Planktothrix agardhii NIVA-CYA 126/8)
Km: 170 ± 3 µM | kcat: 4.08 ± 0.017 s⁻¹
